Several values for one entry are separate records, joined by “and”; a condition that tells them apart may be missing. Identical values can stand only once.
Target: pyruvate kinase M2 (mouse (endogenous in kidney tissue)) (UniProt P52480)
Assay: cross-linking; mouse kidney tissue incubated in 250 uM disuccinimidyl suberate (DSS) for 30 min at room temperature, 8% SDS-PAGE, Western blot for PKM2; control mice, HFD-STZ-induced DN mice, and mice given acrolein scavengers (NAC, hydralazine, carnosine)

pyruvate kinase M2, P52480 1-531 (enzyme), sequence (P52480 whole entry): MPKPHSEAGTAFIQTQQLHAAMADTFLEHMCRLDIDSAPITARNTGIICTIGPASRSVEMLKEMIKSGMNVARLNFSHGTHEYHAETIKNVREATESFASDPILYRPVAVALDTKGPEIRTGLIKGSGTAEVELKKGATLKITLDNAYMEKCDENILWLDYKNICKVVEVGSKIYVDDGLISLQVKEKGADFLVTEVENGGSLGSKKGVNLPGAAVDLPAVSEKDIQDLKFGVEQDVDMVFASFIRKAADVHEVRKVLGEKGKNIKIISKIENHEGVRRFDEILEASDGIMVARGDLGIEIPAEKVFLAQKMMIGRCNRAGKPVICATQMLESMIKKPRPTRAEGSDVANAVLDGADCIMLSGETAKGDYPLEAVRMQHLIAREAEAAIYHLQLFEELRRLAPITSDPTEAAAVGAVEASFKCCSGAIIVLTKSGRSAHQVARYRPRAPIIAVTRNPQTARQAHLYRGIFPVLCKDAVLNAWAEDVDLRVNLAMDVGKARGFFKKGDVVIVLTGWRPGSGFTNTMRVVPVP

For “pyruvate kinase M2, P52480 1-531 (enzyme)”, the stoichiometry N was 2 and 4.
